Laboratory results as given in publication PMC10764318 (Nature Communications, 2024).

B1: WRAIR-5021 (antibody, V domains shown)
VH: QVQLQESGPGLVKPSETLSLTCAVSGYSISSGYYWGWIRQPPGKGLEYIGYFSGTTGSTYYNPSLKSRVTISKDTSKNQFSLKLNSVTAADTAVYYCARQPPRFDVWGPGVLVTVST
VL: DIQMTQSPSSLSASVGDTVTITCRASQGISNFLNWYQQKPGKAPKLLIYDASRLESGVPSRFSGSGSGTEFTLTISSLQPEDFATYHCLQYDSDPFTFGPGTKLDIKR
notes: also called CoV_5021; source: Expi293F, transfected, purified (Protein A magnetic beads)
B2: CB6 (antibody, V domains shown)
VH: EVQLVESGGGLVQPGGSLRLSCAASGFTVSSNYMSWVRQAPGKGLEWVSVIYSGGSTFYADSVKGRFTISRDNSMNTLFLQMNSLRAEDTAVYYCARVLPMYGDYLDYWGQGTLVTVSS
VL: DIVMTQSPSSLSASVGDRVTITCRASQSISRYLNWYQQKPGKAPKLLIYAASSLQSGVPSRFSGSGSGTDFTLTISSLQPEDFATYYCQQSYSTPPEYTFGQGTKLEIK
notes: control antibody, IgG1; also called antigen site B (Class I); source: Expi293F, purified; expressed as human IgG1
B3: A19-61.1 (antibody, V domains shown)
VH: QVQLVESGGGVVQPGRSLRLSCAASGFTFSSYAFHWVRQAPGKGLEWVAVISYDGSNQYYADSVKGRFTISRDNSKNTLYLQMNSLRADDTAVYYCARDLAIAVAGTWHYYNGMDVWGQGTTVTVSS
VL: DIQMTQSPSSVSASVGDRVIITCRASQGISSWLAWYQQKPGKAPKVLIYDASSLQSGVPSRFSGSGYGTDFTLTISSLQPEDSATYYCQQAKSFPITFGQGTRLEIK
notes: control antibody, IgG1; also called antigen site F (Class III); source: Expi293F, purified; expressed as human IgG1
B4: WRAIR-5020 (antibody, V domains shown)
VH: QVQLQESGPGLVKPSETLSLTCAVSGASISSYWWGWIRQPPGKGLEWIGRISGSSGSTSYNPSLKSRVTISTDTSKNQFSLKLSSVTAADTAVYYCASRITIFGLLRSYWGQGVLVTVSS
VL: EIVMTQSPATLSLSPRERATLSCRASQSVSSNLAWYQQKPGQAPRLLIYYASNRATGIPDRFSGSGSGTDFTLTISSLEPEDVGLYYCQQESNWPWTFGQGTKVEIKR
notes: also called CoV_5020; source: Expi293F, transfected, purified (Protein A magnetic beads)
B5: WRAIR-5004 (antibody, V domains shown)
VH: QVQLVQSGAEIKQPGASVKLSCKASGYTFTTYYIHWVRQAPGQGLEWIGLISPYNGNRGYAQNFQGRVTITTDTSTSTGYMELSSLRSEDTAVYYCTRERVVAAAGYFDYWGQGVLVTVSS
VL: SYELTQPPSVSVSPGQTARITCGGDNIGSKNVQWYQQKPAQAPVLVIYDDSERPSGIPERFSGSNSGNTATLTISGVEAGDEAGYSCQVWDSSPDHYIFGAGTRLTVLG
notes: also called CoV_5004; source: Expi293F, transfected, purified (Protein A magnetic beads)
B6: WRAIR-5011 (antibody, V domains shown)
V domain 1: EVQLVQSGAEIKQPGASVKLSCKASGYTFTSYYIHWVRQAPGQGLEWIGLISPYNGNRAYAQNFQGRVTITTDTSTSTVYMELSSLKSEDTAVYYCAGEEYSNYGYFDLWGPGTPITISS
V domain 2: SYELTQPPSVSVSPGQTARITCGGDNIGSKNVQWYQQKPAQAPVLVIYDDSERPSGIPERFSGSNSGNTATLTISGVEAGDEADYYCQVWDSSGDHYIFGAGTRLTVLG
notes: also called CoV_5011; source: Expi293F, transfected, purified (Protein A magnetic beads)
B7: WRAIR-5005 (antibody, V domains shown)
VH: QVQLQESGPGLVKPSETLSLTCAVSGSSVNSGYGWTWLRQPPGKGLEWIGYIGGGSGSTIYNPSLKSRLTISKDTSKNQFSLKLSSVTAADTAVYYCASLDYGTTYSWFDVWGPGVLVTVSS
VL: SYELTQPRSVSVSPGQMARITCGGDNIGSKSVQWYQHKPPQAPVLVIYADSERPSGIPERFSGSNSGNTATLTISGVEAGDEADYYCQVWDSSSDVLFGGGTRLTVLG
notes: also called CoV_5005; source: Expi293F, transfected, purified (Protein A magnetic beads)
B8: WRAIR-5001 (antibody, V domains shown)
VH: QVQLVQSGAEVKKPGASVKLSCKASGYTFTSYSINWVRQAPGQGLEWMGWVNPSNGVTVYAQKFQGRVTMTRDTSTSTAYMELSSLRFEDTAVYYCARERDQLVVYFDHWGQGALVTVSS
VL: SYELTQPRSVSVSPGQTARITCGGDNIASKNVHWYQQKLAQAPVLVIYYDSDRPSGIPERFSGSNSGNTATLTISGVEAGDEADYYCQVWDSYSGHHVLFGGGTRLTVLG
notes: also called CoV_5001; source: Expi293F, transfected, purified (Protein A magnetic beads)
B9: A19-46.1 (antibody, V domains shown)
VH: QVQLVESGGGVVQPGRSLRLSCAASGFTLSSYGMHWVRQAPGKGLEWVAVISYDGSNKYYVDSVKGRFTISRDNSKNTLYLQMNSLRAEDTAVYYCARGWAYWELLPDYYYGMDVWGQGTTVTVSS
VL: QTVVTQEPSFSVSPGGTVTLTCGLSSGSVSTAYFPSWYQQTPGQAPRTLIYGTNTRSSGVPDRFSGSILGNKAALTITGAQADDESDYYCVLYMGRGIVVFGGGTKLTVL
notes: control antibody, IgG1; also called antigen site D (Class II); source: Expi293F, purified; expressed as human IgG1
B10: LY-CoV-555 (antibody, V domains shown)
VH: QVQLVQSGAEVKKPGSSVKVSCKASGGTFSNYAISWVRQAPGQGLEWMGRIIPILGIANYAQKFQGRVTITADKSTSTAYMELSSLRSEDTAVYYCARGYYEARHYYYYYAMDVWGQGTAVTVSS
VL: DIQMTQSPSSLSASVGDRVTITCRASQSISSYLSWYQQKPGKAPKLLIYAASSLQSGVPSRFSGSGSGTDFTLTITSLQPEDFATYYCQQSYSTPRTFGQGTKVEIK
notes: control antibody, IgG1; also called antigen site E (Class II); source: Expi293F, purified; expressed as human IgG1

Key:
SARS-CoV-2 WA-1 RBD = target: T1, SARS-CoV-2 WA-1 RBD (SARS-CoV-2, UniProt P0DTC2 331-527); test: BLI; conditions: both partners purified
T1 construct: source: Expi293F, purified (Ni-NTA)

[1] = target: T2, SARS-CoV-2 RBD (318-514), Avi-tagged, biotinylated (SARS-CoV-2, UniProt P0DTC2, biotin (BirA biotinylation kit)); test: BLI; conditions: both partners purified
T2 construct: source: Expi293F, purified (Ni-NTA); biotinylated with the BirA kit

Row | Binder | Kd (SARS-CoV-2 WA-1 RBD) [nM] | koff (SARS-CoV-2 WA-1 RBD) [s⁻¹] | kon (SARS-CoV-2 WA-1 RBD) [M⁻¹ s⁻¹] | binding result [1]
1 | B1 | 1.09 ± 0.007 | 0.000353 | 325000 | 
2 | B2 |  |  |  | binds
3 | B3 |  |  |  | binds
4 | B4 | 13 ± 0.1 | 0.00273 | 210000 | 
5 | B5 | 0.72 ± 0.015 | 0.000154 | 199000 | 
6 | B6 | 0.69 ± 0.013 | 0.000147 | 215000 | 
7 | B7 | 1.14 ± 0.013 | 0.000238 | 209000 | 
8 | B8 |  | 0.000119 | 209000 | 
9 | B9 |  |  |  | binds
10 | B10 |  |  |  | binds
